Target: the molecule itself
Test: SEC-MALS

B1: human FUT9 soluble catalytic domain (residues 39-359) (enzyme, UniProt Q9Y231 39-359, looked up)
chain: SPMESASSVLKMKNFFSTKTDYFNETTILVWVWPFGQTFDLTSCQAMFNIQGCHLTTDRSLYNKSHAVLIHHRDISWDLTNLPQQARPPFQKWIWMNLESPTHTPQKSGIEHLFNLTLTYRRDSDIQVPYGFLTVSTNPFVFEVPSKEKLVCWVVSNWNPEHARVKYYNELSKSIEIHTYGQAFGEYVNDKNLIPTISTCKFYLSFENSIHKDYITEKLYNAFLAGSVPVVLGPSRENYENYIPADSFIHVEDYNSPSELAKYLKEVDKNNKLYLSYFNWRKDFTVNLPRFWESHACLACDHVKRHQEYKSVGNLEKWFWN
modifications: N-glycans cleaved with EndoF1; a tetrasaccharide (Manα1,3-Manβ1,4-GlcNAcβ1,4-GlcNAcβ-) is left on Asn153
- stoichiometry N: 2

Reference: article PMC10726971 (Nature chemical biology, 2023)
